In publication PMC8096248:

B1: PriL, large subunit of primase, T. kodakarensis, recombinant (natural protein)
chain: MLDPFGKRAESLIREEFGDLLALLERVPSAISVEEPISLVSWMLESENPPQELVEVDNLEELRDLFKFYALLGAASISPYGLEAEVVKRATLRLYSERIKASKNLSETMLPVVPVGENEIPHNDLNILERRMDRNLSPEEKEKLKIKYKIPIKDLLNLWGSSLKEVYIRNGYAYLRWETALKMWEKAFEKRFERAVNILYEYRDELPEFYHRLREKLEEIAEEYFKERGEMFKGTASPLRFDLFPPCVKEALKGVPAGMRNYAITVLLTSFLSYARICPNPPKKDVRIKDCINDLKIIEEEILPVIIEAGNRCKPPLFEDQPHEIKNIWYHLGFGLTDSPTMEDSGNSTWYFPPNCDKIRANAPQLCKPDKYCRGIKNPLSYYLKRLYLEGKKKEGETSE
B2: PriS, small subunit of primase, T. kodakarensis, recombinant (natural protein)
chain: MSKLLREVTPEERRLYYSGEWDAKKLPEFIVESIERREFGFDHTGEGPSDRKNAFSDVRDLEDYIRATAPYAAYSSVAFYRNPQEMEGWLGAELVFDIDAKDLPLRRCQNEHPSGQVCPICLEDAKELARDTLIILKEDFGFENIHVVYSGRGYHIRVIDEWALKLDSKARERILSYVSAAEEVTFDDIQKRYIMLSSGYFRVFRLRFGYFIQRINENHLKNIGLKRSTAEKLLDEKTRQDIVEKFVNKGLLAAFPEGVGYRTLLRLFGLSTTFSKAYFDGRVTVDLKRILRLPSTLHSKVGLVATYIGSDEKRLEKFDPFKDAVPEFRKEEVQKAYQEWKELHEG
B3: primed DNA d29/d45 (dsDNA)
DNA 1: GGTACCGGGCCCCCCCTCGAGGTCGACGG
DNA 2: ATCAAGCTTATCGATACCGTCGACCTCGAGGGGGGGCCCGGTACC
modifications: 3'-OH of d29 replaced by NH2

Assays:
[1] = molecular target: family-D DNA polymerase (PolD), DP1–DP2 complex, T. kodakarensis, recombinant wild type (Thermococcus kodakarensis) (UniProt Q5JET0); assay: SPR
PolD cPIP mutant;PCNA1 = PolD cPIP mutant;PCNA1 (Thermococcus kodakarensis;Thermococcus …, UniProt Q5JET1;Q5JET0;Q5JF32 1-735;1-963+1438-1798;1-249, L1792A;F1795A;F1796A;internal_change|); assay: gel filtration
PolD (DP1-DP2);PCNA1 = PolD (DP1-DP2);PCNA1 (Thermococcus kodakarensis;Thermococcus …, UniProt Q5JET1;Q5JET0;Q5JET0;Q5JF32 1-735;1-963;1438-1798;1-249, |); assay: gel filtration

Row | Binder | Kd [1] [nM] | binding result (PolD cPIP mutant;PCNA1) | binding result (PolD (DP1-DP2);PCNA1)
1 | B1 | 160 | – | –
2 | B2 | 1400 | – | –
3 | B3 | – | binds | binds
